Article PMC5586252, “PP2A-B′ holoenzyme substrate recognition, regulation and role in cytokinesis” (Cell Discovery, 2017)

B1: Cyk4 (1–177): Cyk4 construct (residue 1–177) containing the coiled-coil domain and a portion of the disordered region (protein, UniProt Q9H0H5 1-177, looked up, fragment)
chain: MDTMMLNVRNLFEQLVRRVEILSEGNEVQFIQLAKDFEDFRKKWQRTDHELGKYKDLLMKAETERSALDVKLKHARNQVDVEIKRRQRAEADCEKLERQIQLIREMLMCDTSGSIQLSEEQKSALAFLNRGQPSSSNAGNKRLSTIDESGSILSDISFDKTDESLDWDSSLVKTFKL
B2: pCyk4 (1–177): Cyk4 (1–177) phosphorylated in vitro by Plk1 (protein)
chain: GSMDTMMLNVRNLFEQLVRRVEILSEGNEVQFIQLAKDFEDFRKKWQRTDHELGKYKDLLMKAETERSALDVKLKHARNQVDVEIKRRQRAEADCEKLERQIQLIREMLMCDTSGSIQLSEEQKSALAFLNRGQPSSSNAGNKRLSTIDESGSILSDISFDKTDESLDWDSSLVKTFKL
modifications: phosphorylated by Plk1: mono- to pentakis-phosphorylated forms, no unphosphorylated form; sites of the tetrakis form S149, S157, S164 and S170; left off: GST, N-terminal, cleaved
notes: Cyk4 (1–177) phosphorylated in vitro by Plk1

Test system: GST-B′γ1
Assay: Titration pull-down of Cyk4 / pCyk4 by immobilized GST-B′γ1
Type: binding
Details: 10 μg immobilized GST-B′γ1
Method: Next, we thoroughly examined Cyk4 phosphorylation sites by MS and the effect of each phosphorylation on B′ binding. […] Upon phosphorylation in vitro by Plk1, the interaction can be detected with Cyk4 concentration as low as 0.6 μM and the half maximum binding can be obtained with the concentration of pCyk4 (1–177) between 2.5 and 5 μM (Figure 4d). […] No unphosphorylated CyK4 is detected (Figure 4e, left panel). The most abundant species are 2pCyk4 and 3pCyk4 that correspond to bis- and tris-phosphorylated proteoforms, respectively (Figure 4e, left panel). Further tandem MS with collision-induced dissociation (CID) and electron capture dissociation (ECD) of 4pCyk4 pinpointed the four sites that are phosphorylated, S149, S157, S164 and S170 (Figure 4e, right panel). Phosphorylation at these four sites was previously reported collectively, but not simultaneously, in different studies. […] As 5pCyk4 represents a minor species of the pCyk4 (Figure 4e, left panel), we concluded that the increase of binding affinity between B′ and pCyk4 is largely contributed by phosphorylation at S149. […] These collectively confirmed that pCyk4 interacts with PP2A-B′ holoenzymes via the identified B′-binding motif that is responsive to primarily the Plk1 phosphorylation site at S149.
Approximately 10 μg of GST-tagged B′-binding motifs or GST-pCyk4 was bound to 10 μl of glutathione resin via GST tag. […]

Molecule	concentration at which interaction with GST-B′γ1 can be detected [µM]
B1	≥ 20
B2	0.6
